Laboratory results: PMC12217004, “Evolutionary regulation of human Fas ligand (CD95L) by plasmin in solid cancer immunotherapy” (Nature Communications, 2025)

T1: human Fas ligand extracellular domain, shorter form, His-tagged (HuFasL^S, 134-281) (human), P48023
T1 chain: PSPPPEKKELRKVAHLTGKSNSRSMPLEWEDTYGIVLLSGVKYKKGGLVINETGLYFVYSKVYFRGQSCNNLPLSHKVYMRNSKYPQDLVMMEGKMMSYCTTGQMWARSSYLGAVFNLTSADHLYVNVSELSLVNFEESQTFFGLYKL


Tests used:
[1] = target: human Fas ligand extracellular domain, shortest form, His-tagged (HuFasL^ST, 146-281) (human) (UniProt P48023); experiment: SEC; freshly purified FasL in PBS, 10 ug loaded on Superdex 200 10/300 GL, 1 ml/min, A280; trimer and monomer peaks
[2] = target: murine Fas ligand extracellular domain, long form, His-tagged (muFasL^L, 103-281) (mouse) (UniProt P41047); experiment: non-reducing gel with 60% lowered SDS, FasL immunoblot; his-tagged human and murine FasL forms added onto murine 4T1 cells (also human OVCAR3 cells) for 2 hr in serum-free media; supernatant precipitated and loaded without boiling on non-reducing gels
[3] = target: Rhesus monkey Fas ligand extracellular domain, shortest form (RhFasL^ST) (Rhesus monkey) (UniProt P63307); experiment: SEC; freshly purified FasL in PBS, 10 ug loaded on Superdex 200 10/300 GL, 1 ml/min, A280; trimer and monomer peaks
[4] = target: murine Fas ligand extracellular domain, shorter form, His-tagged (muFasL^S, 134-281) (mouse) (UniProt P41047); experiment: non-reducing gel with 60% lowered SDS, FasL immunoblot; his-tagged human and murine FasL forms added onto murine 4T1 cells (also human OVCAR3 cells) for 2 hr in serum-free media; supernatant precipitated and loaded without boiling on non-reducing gels
[5] = target: T1, human Fas ligand extracellular domain, …; experiment: SEC; freshly purified FasL in PBS, 10 ug loaded on Superdex 200 10/300 GL, 1 ml/min, A280; trimer and monomer peaks; details: remark: other sources report otherwise
[6] = target: the molecule itself; experiment: as above

Molecule	stoichiometry N [6]	also measured
human Fas ligand extracellular domain, shortest form, His-tagged (HuFasL^ST, 146-281) (from UniProt P48023 146-281) (domain or fragment)		stoichiometry N [1]: 3
murine Fas ligand extracellular domain, long form, His-tagged (muFasL^L, 103-281) (from UniProt P41047 103-279) (domain or fragment)		stoichiometry N [2]: 3
Rhesus monkey Fas ligand extracellular domain, shortest form (RhFasL^ST) (from UniProt P63307 146-280) (domain or fragment)		stoichiometry N [3]: 3
murine Fas ligand extracellular domain, shorter form, His-tagged (muFasL^S, 134-281) (from UniProt P41047 134-279) (domain or fragment)		stoichiometry N [4]: 3
human Fas ligand extracellular domain, shorter form, His-tagged (HuFasL^S, 134-281), P48023 134-281 (domain or fragment) PSPPPEKKELRKVAHLTGKSNSRSMPLEWEDTYGIVLLSGVKYKKGGLVINETGLYFVYSKVYFRGQSCNNLPLSHKVYMRNSKYPQDLVMMEGKMMSYCTTGQMWARSSYLGAVFNLTSADHLYVNVSELSLVNFEESQTFFGLYKL		stoichiometry N [5]: 3
Rhesus monkey Fas ligand extracellular domain, long form, His-tagged (RhFasL^L, 103-281) (domain or fragment, UniProt P63307 103-280, looked up, Rhesus monkey Fas ligand (FasL), entire extracellular domain, residues 103-281, carries P153; source: Freestyle CHO-S cells, transfected, purified from supernatant (his-TRAP); not shown: His tag, N-terminal, kept) LFHLQKELAELRESTSQKHTASSLEKQIGHPSPPPEKKEQRKVAHLTGKPNSRSMPLEWEDTYGIVLLSGVKYKKGGLVINETGLYFVYSKVYFRGQSCTNLPLSHKVYMRNSKYPQDLVMMEGKMMSYCTTGQMWAHSSYLGAVFNLTSADHLYVNVSELSLVNFEESQTFFGLYKL	3	
human Fas ligand extracellular domain, long form, His-tagged (HuFasL^L, 103-281) (domain or fragment, UniProt P48023 103-281, looked up, human Fas ligand (FasL, CD95L), entire extracellular domain, residues 103-281 (Q103-L281), carries S153; C-terminal His-tag versions were poorly expressed and not functional; N-terminal His-tag proteins were used; Mixture of trimer and monomer by SEC; also called Long^(L); huFasL^WT; source: Freestyle CHO-S cells, transfected, purified from supernatant (his-TRAP); not shown: His tag, N-terminal, …) QLFHLQKELAELRESTSQMHTASSLEKQIGHPSPPPEKKELRKVAHLTGKSNSRSMPLEWEDTYGIVLLSGVKYKKGGLVINETGLYFVYSKVYFRGQSCNNLPLSHKVYMRNSKYPQDLVMMEGKMMSYCTTGQMWARSSYLGAVFNLTSADHLYVNVSELSLVNFEESQTFFGLYKL	3	
Rhesus monkey Fas ligand extracellular domain, shorter form (RhFasL^S, 134-281) (domain or fragment, UniProt P63307 134-280, looked up, Rhesus monkey Fas ligand (FasL), residues 134-281, carries P153; source: Freestyle CHO-S cells, transfected, purified from supernatant (his-TRAP)) SPPPEKKEQRKVAHLTGKPNSRSMPLEWEDTYGIVLLSGVKYKKGGLVINETGLYFVYSKVYFRGQSCTNLPLSHKVYMRNSKYPQDLVMMEGKMMSYCTTGQMWAHSSYLGAVFNLTSADHLYVNVSELSLVNFEESQTFFGLYKL	3	
human Fas ligand extracellular domain, long form, S153P (HuFasL-S153P^L, 103-281) (domain or fragment, UniProt P48023 103-281, looked up, human Fas ligand (FasL), residues 103-281 with S153P; The substitution was engineered here; source: Freestyle CHO-S cells, transfected, purified from supernatant (his-TRAP)) QLFHLQKELAELRESTSQMHTASSLEKQIGHPSPPPEKKELRKVAHLTGKPNSRSMPLEWEDTYGIVLLSGVKYKKGGLVINETGLYFVYSKVYFRGQSCNNLPLSHKVYMRNSKYPQDLVMMEGKMMSYCTTGQMWARSSYLGAVFNLTSADHLYVNVSELSLVNFEESQTFFGLYKL	3	
human Fas ligand extracellular domain, shorter form, S153P (HuFasL-S153P^S, 134-281) (domain or fragment, UniProt P48023 134-281, looked up, human Fas ligand (FasL), residues 134-281 with S153P; The substitution was engineered here; source: Freestyle CHO-S cells, transfected, purified from supernatant (his-TRAP)) PSPPPEKKELRKVAHLTGKPNSRSMPLEWEDTYGIVLLSGVKYKKGGLVINETGLYFVYSKVYFRGQSCNNLPLSHKVYMRNSKYPQDLVMMEGKMMSYCTTGQMWARSSYLGAVFNLTSADHLYVNVSELSLVNFEESQTFFGLYKL	3	
